Experimental findings from publication PMC3791465 are described below.

This assay has as its target 6 × His-tagged recombinant PHB2, Q99623. Put plainly: SPR. (In general: Surface plasmon resonance follows binding to a sensor surface in real time, without labels.)

6 × His-tagged recombinant PHB2, Q99623, sequence (Q99623 whole entry): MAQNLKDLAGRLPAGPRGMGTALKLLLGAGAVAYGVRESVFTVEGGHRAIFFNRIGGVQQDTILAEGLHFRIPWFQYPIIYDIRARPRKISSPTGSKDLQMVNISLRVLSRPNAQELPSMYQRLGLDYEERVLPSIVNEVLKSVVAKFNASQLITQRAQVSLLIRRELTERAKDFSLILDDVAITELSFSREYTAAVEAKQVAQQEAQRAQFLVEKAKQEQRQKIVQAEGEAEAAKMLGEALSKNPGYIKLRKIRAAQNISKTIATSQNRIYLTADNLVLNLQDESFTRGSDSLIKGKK

What is called Kd is the concentration at which binding is half-saturated. With QMLSDLTLQLRQR (modifications not checked) [ERα activity-regulator synthetic peptide (ERAP)], the dissociation constant Kd came out at 18.9 µM.
